B1: TPR t1 (parent)
chain: GACCAAUCUGCCCUCAGAGCUCGAGAACAUCUUCGGAUGCAGAGGAGGCAGGCUUCGGUGGCGCGAUAGCGCCAACGUCCUCAACCUCCAAUGCAUCCCACCACAUGAUGAUGCCUGAAGAGCCUUGGUUUUUUG

Variants of: B1
Experiment: polymerase ribozyme fitness, log enrichment relative to wild type (log ratio); higher = more active; in vitro selection for triplet polymerase activity
Procedure, shortened: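 After PCR construction and transcription, each subunit's mutant library from a heterodimeric triplet polymerase ribozyme was annealed with a biotinylated primer, the partner subunit and triplets. Incubation was frozen, at −7 °C, and extended constructs were gel-excised, bound to streptavidin beads and amplified by RT-PCR, in one selection round done in triplicate. Fitness is the logarithm of a genotype's enrichment divided by that of the wild type, from inverse-variance-weighted replicate averages of Illumina-sequenced inputs and outputs. The base of the logarithm is 2, and genotypes needed ≥10 input reads and ≥1 read per output.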
With GACCAAUCUGUCCUCAGAGCUCGAGAACAUCUUUGGAUGCAGAGGAGGCAGGCUUCGGUGGCGCGAUAGCACCAACGUCCUCAACCUCCAAUGCAUCCCACCACAUGAUGAUGCCUGAAGCGCCUUGGCUUUUUG the “polymerase ribozyme fitness (log ratio)” value was -6.13. With GACCAAUCUGUCCUAAGAGCUCGAGAACAUCUUCGGAUGCAGAGGAGGCAGGCUUCGGUGGCGCGAUAGCGCCAACGUCCUCAACCUCCAAUGCAUCCCAGCACAUGAUGAUGCCUGAAGAGCCUUGGUUUUUUG the “polymerase ribozyme fitness (log ratio)” value was -3.87. For GACCAAUCUGUCCUCAGAGGUCGAGAACAUCUUCGGAUGCAGAGGAGGCAGGCUUCGGUGGCGCGAUAGCGCCAACGUCCUCAACCUCCAAUGCAGCCCACCACAUGAUGAUGCCUGAAGAGUCUUGGUUUUUUG, the “polymerase ribozyme fitness (log ratio)” value was -2.94. With GACCAAUCUGUCCUACGAGCUCGAGAACAUCUGCGGAUGCAGAGGAGGGAGGCUUCGGUAGCGCAAUAGCGCCAACGUACUCAACCUCCCAUGCAUCCCACCACAUGAAGAUGCCUGAAGAGCCUUGGUUUUUUG the “polymerase ribozyme fitness (log ratio)” value was -8.01. With GACCAAUCUGUCCUCAGAGCUCGAGAACAUCUUCGGAUGCAGAGGAGGCAGGCUUCGGUGGCGCGAUAGCGCCAACGUCCUCAACCUCCAAUGCAUCCCCCCACAUGAUGAUGCCUGAAGAGCCUUGGUUUUUUG the “polymerase ribozyme fitness (log ratio)” value was -1.31. In the case of GACCAAUCUGUCCUCAGAGUUCGAGAACAUCUUCGGAUGCAGAGGAGGCAGGCUUCGGUGGCACGAUAGCGCCAACGUCCUCAACCCCCAAUGCAUCCCACCACAUGAUGAUGCCUGAAGAGCCUUGGUUUUUUG, the “polymerase ribozyme fitness (log ratio)” value is reported as -1.21. In the case of GACCAAUCUGUACUCAGAGCUCGAGAACAUCUUCGGAUGCAGAGGAGGCAGGCUUCGGUGGCGCGAUAGCGCCAACGUCCUCAACCUCCAAUGCACCCCACCACAUGAUGAUGCCUGAAGAGCCUUGGUUUUUUG, the “polymerase ribozyme fitness (log ratio)” value is reported as -2.18. In the case of GACCAAUCUGUCCUCAGAGCUUGAGAACAUCUUCGGAUGCAGAGGAGGCAGGCUUCGGUGGCGCGAUAGCGCCAACGUCCUCAACCUCCAAUGCAUCCCACCACAUGAUGAUGCCUGAAGAGCCUUGGUUUUUUG, the “polymerase ribozyme fitness (log ratio)” value is reported as -4.2. With GACCAAUCUGUCCUCAGAGCUAGAGAACAUCUUCGGAUGCAGAGGAGGCAGGCUUCGGUGGCGCGAUAGCGCCAACGUCCUCAACCUCCAAUGCAUCCCACCACAUGAUGAUGCCUGAAGAGCCUUGGUUUUUUG the “polymerase ribozyme fitness (log ratio)” value was -4.84. In the case of GACCAAUCUGUCCUCAGAGCUCGAGAAUAUCUUCGGAUGCAGAGGAGGCAGGCUUCGGUGGCGCGAUAGCGCCAACGUCCUUAACCUCCAAUGCAUCCCACCACAUGAUGAUGCCUGAAUAGCCUUGGUUUUUUG, the “polymerase ribozyme fitness (log ratio)” value is reported as -2.14. With GACCAAUCUGUCUUCAGGGCUCGAGAACAUCUUCGGAUGCAGAGGAGGCAGGCUUUGGUGGCGCGAUAGCGCCAACGUCCUCAACCUCCAAUGCAUCCCACCACAUGAAGAUGCCUGAAGAGCCUUGGUUUUUUG the “polymerase ribozyme fitness (log ratio)” value was -4.43. In the case of GACCAAUCUGUCCUCAGAGGUCGAGAACAUCUUCGGAUGCAGAGGAGGCAGGCUUCGGUGGCGCGAUAGCGCCAACGUCCUCAACCUCCAAUGCAUCCCACCACAUGAUGAUGCCUUAAGAGCCUUGGUUUUUUG, the “polymerase ribozyme fitness (log ratio)” value is reported as -4.42. With GACCAAUCUGUCCUCAGAGCUCGAGAACAUCUUCGGAUGCAGAGGAGGCAGGUUUCGGUGGCGCGAUAGCGCCAACGUCCUCAGCCUCCAAUGCAUCCCACCACAUGAUGAUGCCUGAAGAGCCUUGGUUUUUUG the “polymerase ribozyme fitness (log ratio)” value was -1.32. With GACCAAUCUGUCCUCAGAGCUCGAGAACAUCUUCGGAUGCAGAGGAGGCAGGCUUCGGUGGCGCGAUAGCGCCAACGUCCUCCACCUCCAAUGCAUCCCACCACAUGAUGAUGCCUGAAGAGCCUUGGUUUUUUG the “polymerase ribozyme fitness (log ratio)” value was -0.558. For GACCAAUCUGUCCUCAGAGAUCGAGAACAUCUUCGGAUGCACAGGAGGCAGGCUUCGGUGGCGCGAUAGCGCCAACGUCCUCAACCUCCAAUGCAUCCCACUACAUGAUGACGCCUGAAGAGCGUUGGUUUUUUG, the “polymerase ribozyme fitness (log ratio)” value was -5.12. For GACCAAUCUGUCCUAAGAGCUCGAGAACAUCUUCGGAUCCAGAGGAGGCAGGCUUCGGUGCCGCGAUAGCGCCAACGUCCUCAACCUCCAAUGCAUCCCACCACAUGAUGAUGACUGAAGAGCCUUGGUUUUUUG, the “polymerase ribozyme fitness (log ratio)” value was -5.39. For GACCAAUCUGUCUUCAGAGCUCGAGAACAUCUUCGGAUGCAGACGAGGCAGGCUUCGGUGGCGCGAUAGCGCCAACGUCCUCAACGUCCAAUGCAUCCCACCACAUGAUGAUGCCCGAAGAGCCUUGGUUUCUUG, the “polymerase ribozyme fitness (log ratio)” value was -1.99. For GACCAAUCUGUCCUCAGAGCUCGAGAACAUCUUUGGAUGCAGAGGAGGCAGGCUUCGGUGGCGCGAUAGCGCCAACGUCCUCAACCUCCAAUGCAUCCCACCACAUGAUGAUGCCUGAAGAGCCUUGGUUUUUUG, the “polymerase ribozyme fitness (log ratio)” value was -3.97. For GACCAAUCUGUACUCAGAGCUCGAGAACAUCUUCGGAUGCCGAGGAGGCAGGCUUGGGUGGCGCGAUAUCGCCAACGUCCUCAACCUCCAAUGCAUCCCACCACAUGAUGAUGCCUGAAGAGCCUUGGUUUUUUG, the “polymerase ribozyme fitness (log ratio)” value was -2.94. For GACCAAUCUGUCCUCAGAGCUCGAGAACAUCUUCGGAUGGAGAGGAGGAAGGCUGCGGUGACGCGAUAGCGCCAACGUCCUCAACCUCCAAUGCAUCCCACCACAUGAUGAUGCCUGAAGAGCCUUGGUUUUUUG, the “polymerase ribozyme fitness (log ratio)” value was -1.51. For GACCAAUCUGUCCUCAGAGCUCGAGAACAUCUUCGGAUGUAGAGGAGGCAGGCUUCGGUUGCGCGAUAGCGCCAACCUCCUCAACCUCCAAUGCAUCCCACCACAUGAUGUUGCCUGAAGAGCCUUGGUUUUUUG, the “polymerase ribozyme fitness (log ratio)” value was -4.37.

From the RNAGym collection of RNA variant scans (doi:10.1073/pnas.2313332121)
